The values below come from article PMC8571288 (Nature Communications, 2021).

For assay [1], the target named is T1, human CST complex (Flag-CTC1-STN1-TEN1-His6) (human, UniProt Q2NKJ3 1-1217; Q9H668 1-368; Q86WV5 1-123).
T1 construct: CTC1, human, subunit of the CST complex; STN1, human, subunit of the CST complex; TEN1, human, subunit of the CST complex; also called wild-type CST; not shown: Flag, N-terminal, kept; His6, C-terminal, kept; copies: + +
The assay is described as follows: pull-down; 1 μM CST or CTC1Δ700N-ST (His6 on TEN1) with 1 μM RAD51, RecA or RPA, 20 min 37 °C, buffer D (35 mM Tris-HCl pH 7.5, 10% glycerol, 0.01% Igepal, 1 mM 2-mercaptoethanol) with 5 mM imidazole and 50 mM KCl; for RPA without DNA or with 2 μM 30-nt ssDNA; captured on His-Tag Dynabeads; SDS-PAGE, Coomassie. Particulars: both partners purified.

For assay [2], the target named is T2, CTC1Δ700N-ST complex (CTC1 lacking its N-terminal 700 residues, with STN1 and TEN1-His6) (human, UniProt Q2NKJ3 701-1217; Q9H668 1-368; Q86WV5 1-123).
T2 construct: CTC1, human, with the N-terminal 700 residues removed (CTC1Δ700N); STN1, human, subunit of the CST complex; TEN1, human, subunit of the CST complex; also called CTC1∆700N-ST; not shown: His6, C-terminal, kept; copies: + +
T2 sequence (looked up) 1: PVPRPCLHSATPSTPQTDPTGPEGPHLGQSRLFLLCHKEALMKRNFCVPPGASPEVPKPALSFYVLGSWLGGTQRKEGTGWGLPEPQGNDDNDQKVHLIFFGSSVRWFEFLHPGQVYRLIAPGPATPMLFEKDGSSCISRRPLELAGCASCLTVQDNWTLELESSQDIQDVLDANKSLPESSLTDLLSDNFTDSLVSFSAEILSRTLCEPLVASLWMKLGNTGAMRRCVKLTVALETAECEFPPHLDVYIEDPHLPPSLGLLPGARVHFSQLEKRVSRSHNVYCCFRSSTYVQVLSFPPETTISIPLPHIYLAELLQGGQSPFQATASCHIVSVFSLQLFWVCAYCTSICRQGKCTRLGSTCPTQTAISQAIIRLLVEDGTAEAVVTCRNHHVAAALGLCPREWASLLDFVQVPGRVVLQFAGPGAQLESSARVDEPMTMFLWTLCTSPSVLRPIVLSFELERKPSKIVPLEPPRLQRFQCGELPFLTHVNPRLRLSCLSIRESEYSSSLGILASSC
T2 sequence (looked up) 2: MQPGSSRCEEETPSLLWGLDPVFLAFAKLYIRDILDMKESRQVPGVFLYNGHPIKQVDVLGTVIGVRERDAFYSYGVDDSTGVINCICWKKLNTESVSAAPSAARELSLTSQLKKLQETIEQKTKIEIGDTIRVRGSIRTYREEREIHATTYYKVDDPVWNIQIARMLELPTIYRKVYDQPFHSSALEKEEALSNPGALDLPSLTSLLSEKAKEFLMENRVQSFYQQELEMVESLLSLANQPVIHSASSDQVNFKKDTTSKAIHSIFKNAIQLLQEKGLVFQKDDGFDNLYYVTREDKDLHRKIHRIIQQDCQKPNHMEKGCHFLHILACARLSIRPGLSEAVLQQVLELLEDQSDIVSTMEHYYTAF
T2 sequence (looked up) 3: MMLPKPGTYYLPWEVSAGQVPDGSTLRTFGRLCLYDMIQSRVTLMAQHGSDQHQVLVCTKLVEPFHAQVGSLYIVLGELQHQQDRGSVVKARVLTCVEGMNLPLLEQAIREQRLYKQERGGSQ
The assay is described as above. The following applies: both partners purified.

B1: human RAD51 (natural protein, UniProt Q06609 1-339, looked up)
chain: MAMQMQLEANADTSVEEESFGPQPISRLEQCGINANDVKKLEEAGFHTVEAVAYAPKKELINIKGISEAKADKILAEAAKLVPMGFTTATEFHQRRSEIIQITTGSKELDKLLQGGIETGSITEMFGEFRTGKTQICHTLAVTCQLPIDRGGGEGKAMYIDTEGTFRPERLLAVAERYGLSGSDVLDNVAYARAFNTDHQTQLLYQASAMMVESRYALLIVDSATALYRTDYSGRGELSARQMHLARFLRMLLRLADEFGVAVVITNQVVAQVDGAAMFAADPKKPIGGNIIAHASTTRLYLRKGRGETRICKIYDSPCLPEAEAMFAINADGVGDAKD
notes: RAD51 recombinase, human
Consider B1, for which the binding result in assay [1] and in assay [2] was “binds” in each case.
